Laboratory results taken from patent US20250346644A1 (LATTICON SUZHOU BIOPHARMACEUTICALS, published 2025).
Read-outs that look alike come from different tables or passages of the source. One block for each binder: values may come before it.

Assays:
hIL2-TM-his [1] = target: T1, hIL2-TM-his (human, UniProt P60568 21-153); experiment: BLI ForteBio, Ab on Protein A sensor
T1 construct: also called hIL-2 mutein containing three point mutations K64G, N90R and M104E (with a his-tag); not shown: his-tag
T1 chain: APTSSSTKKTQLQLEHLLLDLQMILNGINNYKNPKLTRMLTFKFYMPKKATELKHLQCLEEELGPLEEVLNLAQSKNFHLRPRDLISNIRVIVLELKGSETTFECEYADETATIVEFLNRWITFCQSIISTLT

mIL2-his [2] = target: T2, mIL2-his (mouse, UniProt P04351 21-169); experiment: BLI ForteBio, Ab on Protein A sensor
T2 construct: also called wild-type mouse IL-2 (with a his-tag); not shown: his-tag
T2 sequence (looked up): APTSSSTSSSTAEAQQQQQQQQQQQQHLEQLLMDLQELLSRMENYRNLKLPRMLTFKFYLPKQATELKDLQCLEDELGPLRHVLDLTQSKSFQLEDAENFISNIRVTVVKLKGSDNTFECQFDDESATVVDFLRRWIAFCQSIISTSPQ

hIL2-DM-his = target: T3, hIL2-DM-his (human, UniProt P60568 21-153); experiment: BLI ForteBio, Ab on Protein A sensor
T3 construct: expressed in ExpiCHO-S cells, nickel-column purified; also called hIL-2 mutein containing two point mutations K64G and N90R (with a his-tag); not shown: his-tag

mIL2-his [3] = target: T2, mIL2-his; experiment: BLI ForteBio, Ab on Protein A sensor; remark: listed apart in the source
Experimental: (§1) After each cycle of association and dissociation steps, the sensor was regenerated by 10 mM glycine buffer (pH 1.5) and then stated with the next cycle of detection. After the detection, the association rate constant and dissociation rate constant between the antibody and antigen were fitted and extrapolated using the analytical software, and the value of affinity constant (KD) was calculated.

mIL2-his [4] = target: T2, mIL2-his; experiment: ELISA, antibody captured by anti-human IgG, mIL2-his titrated
Experimental: (§2) ELISA was performed as follows: a goat anti-human IgG (Jackson Immunoresearch) was diluted to 1 μg/mL in 1×PBS and added to an ELISA plate at 100 μL/well, and then incubated at 4° C. overnight. The plate was washed with PBS and then blocked at room temperature for 1 hour after adding the blocking solution (PBST containing 1% BSA) to each well. […] The plate was washed with PBST; the HRP-labeled anti-6×His-tag secondary antibody (Proteintech) diluted at a ratio of 1:10,000 in blocking solution was then added to each well and incubated at room temperature for 1 hour. The plate was washed with PBST; the TMB chromogenic solution (Thermo) was added to each well and incubated in dark for 3-10 minutes at room temperature. The stop solution (2 M HCl) was added to each well, and OD values at a wavelength of 450-570 nm were read using a multimode microplate reader (Varioskan, Thermo).

[5] = target: T4, high-affinity IL2R expressed on the surface of CTLL-2 cells; experiment: cell-based or functional assay
T4 sequence (P01590 whole entry, species assumed, looked up): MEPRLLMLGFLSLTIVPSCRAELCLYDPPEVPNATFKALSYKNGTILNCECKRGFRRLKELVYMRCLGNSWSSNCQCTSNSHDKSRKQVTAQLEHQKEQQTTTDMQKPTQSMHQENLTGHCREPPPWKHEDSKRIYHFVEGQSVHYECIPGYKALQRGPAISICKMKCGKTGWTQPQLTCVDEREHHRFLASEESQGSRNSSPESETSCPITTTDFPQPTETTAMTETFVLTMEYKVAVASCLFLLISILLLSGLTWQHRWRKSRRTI
T4 sequence (P16297 whole entry, species assumed, looked up): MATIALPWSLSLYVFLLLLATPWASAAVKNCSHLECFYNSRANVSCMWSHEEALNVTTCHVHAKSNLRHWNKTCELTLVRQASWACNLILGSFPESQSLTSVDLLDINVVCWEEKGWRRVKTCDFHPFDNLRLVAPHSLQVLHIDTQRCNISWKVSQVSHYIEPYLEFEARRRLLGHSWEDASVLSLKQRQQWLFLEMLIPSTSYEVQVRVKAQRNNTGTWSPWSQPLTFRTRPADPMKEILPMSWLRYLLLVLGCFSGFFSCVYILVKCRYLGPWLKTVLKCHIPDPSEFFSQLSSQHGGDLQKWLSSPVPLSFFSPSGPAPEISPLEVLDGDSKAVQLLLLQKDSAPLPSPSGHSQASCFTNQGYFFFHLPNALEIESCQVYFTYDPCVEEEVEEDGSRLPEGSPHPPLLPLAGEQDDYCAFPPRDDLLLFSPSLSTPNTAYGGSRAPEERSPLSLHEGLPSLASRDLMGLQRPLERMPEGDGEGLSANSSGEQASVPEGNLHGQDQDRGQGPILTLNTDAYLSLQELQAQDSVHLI
T4 sequence (P34902 whole entry, species assumed, looked up): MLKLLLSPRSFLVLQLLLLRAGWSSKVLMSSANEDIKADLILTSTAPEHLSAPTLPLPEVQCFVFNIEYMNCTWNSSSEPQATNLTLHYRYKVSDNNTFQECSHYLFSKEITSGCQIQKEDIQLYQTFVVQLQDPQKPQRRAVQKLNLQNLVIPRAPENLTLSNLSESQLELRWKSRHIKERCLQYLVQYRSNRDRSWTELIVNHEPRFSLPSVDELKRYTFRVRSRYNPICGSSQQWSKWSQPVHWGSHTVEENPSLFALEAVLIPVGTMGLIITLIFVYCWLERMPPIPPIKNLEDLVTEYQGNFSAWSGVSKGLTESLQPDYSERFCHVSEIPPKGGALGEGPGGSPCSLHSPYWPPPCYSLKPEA

hIL2Rβ (hCD122) = target: T5, hIL2Rβ (hCD122) (human, UniProt P14784 27-239, limits assumed); experiment: ELISA (method of section 2.1.1): sample captured on coated goat anti-human IgG, hCD122 titrated; the x axis is the CD122 concentration
T5 construct: bought recombinant protein; also called hCD122 (Acro)
T5 sequence (looked up): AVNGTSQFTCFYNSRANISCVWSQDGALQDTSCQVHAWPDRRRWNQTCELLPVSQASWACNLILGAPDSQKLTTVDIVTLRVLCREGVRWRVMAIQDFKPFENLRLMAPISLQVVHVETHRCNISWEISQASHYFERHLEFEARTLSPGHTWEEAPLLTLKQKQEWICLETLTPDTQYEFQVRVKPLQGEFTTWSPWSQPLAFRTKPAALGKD
Experimental: as §2

[6] = target: T4, high-affinity IL2R expressed on the …; experiment: cell-based or functional assay; remark: listed apart in the source
hIL2Rα (hCD25) = target: T6, hIL2Rα (hCD25) (human, UniProt P01589 22-213, limits assumed); experiment: ELISA (method of section 4.2.1): sample captured on coated goat anti-human IgG, hCD25 titrated; the x axis is the CD25 concentration
T6 construct: bought recombinant protein; also called hCD25 (Acro); biotin-CD25 (Acro)
T6 sequence (looked up): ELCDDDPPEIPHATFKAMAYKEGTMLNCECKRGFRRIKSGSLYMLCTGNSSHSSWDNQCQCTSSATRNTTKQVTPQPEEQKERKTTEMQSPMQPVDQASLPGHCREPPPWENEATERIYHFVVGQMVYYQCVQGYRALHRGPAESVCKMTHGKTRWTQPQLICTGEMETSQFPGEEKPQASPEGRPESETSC

hIL2-TM-his [7] = target: T1, hIL2-TM-his; experiment: BLI ForteBio, Ab on Protein A sensor
Experimental: as §1

mIL2-his [8] = target: T2, mIL2-his; experiment: BLI ForteBio, Ab on Protein A sensor; remark: listed apart in the source
Experimental: as §1

B1: S4B6 chimeric antibody (antibody, human IgG1, V domains shown)
VH: EVQLQESGAELVRPGTSVKLSCKVSGDTITAYYLHFVRQRPGQGLEWIGRIDPEDDSTKYAENFKNKATFTADASSNTAYLRLSSLTSEDTATYFCTTVTFYYSRELRWFAYWGQGTLVTVSS
VL: DIQVTQSPASLSASLEEIVTITCQASQDIGNYLSWYQQKLGKSPQLLIHSATSLADGVPSRFSGSRSGTQYSLKINRLQVEDTGIYYCLQHYSTPYTFGAGTKLELK
notes: also called chS4B6
Kd (hIL2-TM-his [1]): 22.6 nM
koff (hIL2-TM-his [1]): 0.00476 s⁻¹
kon (hIL2-TM-his [1]): 210000 M⁻¹ s⁻¹
Kd (mIL2-his [2]): 0.996 nM
koff (mIL2-his [2]): 0.000182 s⁻¹
kon (mIL2-his [2]): 183000 M⁻¹ s⁻¹
Kd (hIL2-DM-his): 39.4 nM
koff (hIL2-DM-his): 0.0106 s⁻¹
kon (hIL2-DM-his): 269000 M⁻¹ s⁻¹
Kd (mIL2-his [3]): 0.996 nM
koff (mIL2-his [3]): 0.000182 s⁻¹
kon (mIL2-his [3]): 183000 M⁻¹ s⁻¹
EC50 (mIL2-his [4]): 0.0139 µg/mL

B2: IC-Cy08 (other)
heavy: APTSSSTKKTQLQLEHLLLDLQMILNGINNYKNPKLTRMLTFKFYMPKKATELKHLQCLEEELGCLEEVLNLAQSKNFHLRPRDLISNIRVIVLELKGSETTFMCEYADETATIVEFLNRWITFCQSIISTLTGGGGSGGGGSGGGGSGGGGSQVQLVQSGAEVKKPGATVKISCKVSGDTITAYYMHWVRQAPGQGLEWIGRIDPEDDSTKYAENFKGRVTITADTSTDTAYMELSSLRSEDTAVYYCTTVTCYYSRELRWFAYWGQGTLVTVSS
VL: DIVLTQSPATLSLSPGERATLSCQASQDIGNYLSWYQQKPGQAPRLLIYSATSLASGIPARFSGSRSGTDFTLTISSLEPEDFAVYYCLQHYSTPYTFGQGTKLEIK
notes: hIL-2/anti-IL-2 antibody fusion protein, disulfide IL:65-H:97; also called H6K3(H)-Cy08; H6K3(H)-Cy-08
STAT5 phosphorylation in CTLL-2 cells by flow cytometry, EC50 [5]: 0.234 nM
binding result (hIL2Rβ (hCD122)): binds
Activity in Promoting CTLL-2 Cell Proliferation (EC50, nM) [6]: 0.425 nM

B3: hS4B6-H1K1 (antibody, V domains shown)
VH: QVQLQESGPGLVKPSETLSLTCTVSGDTITAYYLHWIRQPPGKGLEWIGRIDPEDDSTKYAENFKNRVTISVDTSKNQFSLKLSSVTAADTAVYYCTTVTFYYSRELRWFAYWGQGTTVTVSS
VL: DIVLTQSPGTLSLSPGERATLSCQASQDIGNYLSWYQQKPGQAPRLLIYSATSLADGIPDRFSGSRSGTDYTLTISRLEPEDFAVYYCLQHYSTPYTFGQGTKVEIK
notes: full antibody
Kd (mIL2-his [3]): 25.9 nM
koff (mIL2-his [3]): 0.000719 s⁻¹
kon (mIL2-his [3]): 27700 M⁻¹ s⁻¹
EC50 (mIL2-his [4]): 0.0357 µg/mL

B4: K2G11-Cy04 (other)
heavy: SSSTKKTQLQLEHLLLDLQMILNGINNYKNPKLTRMLTFKFYMPKKATELKHLQCLEEELGPLEEVLNLAQSKNFHLRPRDLISNIRVIVLELKGSETTFCCEYADETATIVEFLNRWITFLQSIISTLTGGGGSGGGGSGGGGSGGGGSQVQLVQSGAEVKKPGATVKISCKVSGDTITAYYMHWVRQAPGQGLEWIGRIDPDDDSTKYAENFKGRVTITADTSTDTAYMELSSLRSEDTAVYYCTTITFLYSRELRWFAYWGQGTLVTVSS
VL: DIVLTQSPATLSLSPGERATLSCQASQYISNYLSWYQQKPGQAPRLLIYSACSLASGIPARFSGSRSGTDFTLTISSLEPEDFAVYYCLQHYSTPYTFGQGTKLEIK
Activity in Promoting CTLL-2 Cell Proliferation (EC50, nM) [6]: 9.17 nM

B5: hS4B6-H3K3 (antibody, V domains shown)
VH: QVTLKESGPVLVKPTQTLTLTCTVSGDTITAYYLHWIRQPPGKALEWIGRIDPEDDSTKYAENFKNRLTFSADTSKNQVVLTMTNMDPVDTATYYCARVTFYYSRELRWFAYWGQGTLVTVSS
VL: DIVLTQSPATLSLSPGERATLSCQASQDIGNYLSWYQQKPGQAPRLLIYSATSLADGIPARFSGSRSGTDYTLTISSLEPEDFAVYYCLQHYSTPYTFGQGTKLEIK
notes: full antibody
Kd (mIL2-his [3]): 13.2 nM
koff (mIL2-his [3]): 0.00265 s⁻¹
kon (mIL2-his [3]): 200000 M⁻¹ s⁻¹
EC50 (mIL2-his [4]): 0.185 µg/mL

Now from value to binder:

binding result (hIL2Rα (hCD25)): no binding (tested: 10 µg/mL)
B6: H6K3(H)-Cy10 (other)
heavy: SSSTKKTQLQLEHLLLDLQMILNGINNYKNPKLTRMLTCKFYMPKKATELKHLQCLEEELGPLEEVLNLAQSKNFHLRPRDLISNIRVIVLELKGSETTFMCEYADETATIVEFLNRWITFLQSIISTLTGGGGSGGGGSGGGGSGGGGSQVQLVQSGAEVKKPGATVKISCKVSGDTITAYYMHWVRQAPGQGLEWIGRIDPEDDSTKYAENFKGRVTITADTSTDTAYMELSSLRSEDTAVYYCTTVTCYYSRELRWFAYWGQGTLVTVSS
VL: DIVLTQSPATLSLSPGERATLSCQASQDIGNYLSWYQQKPGQAPRLLIYSATSLASGIPARFSGSRSGTDFTLTISSLEPEDFAVYYCLQHYSTPYTFGQGTKLEIK
notes: fusion with the parental antibody hS4B6-H6K3(H), disulfide IL:42-H:97; also called H6K3-Cy10

Kd (hIL2-TM-his [7]): 9.88 nM
koff (hIL2-TM-his [7]): 0.0027 s⁻¹
kon (hIL2-TM-his [7]): 274000 M⁻¹ s⁻¹
Kd (mIL2-his [8]): 0.254 nM
koff (mIL2-his [8]): 0.000236 s⁻¹
kon (mIL2-his [8]): 928000 M⁻¹ s⁻¹
B7: hS4B6-H6K3(H) (antibody, V domains shown)
VH: QVQLVQSGAEVKKPGATVKISCKVSGDTITAYYMHWVRQAPGQGLEWIGRIDPEDDSTKYAENFKGRVTITADTSTDTAYMELSSLRSEDTAVYYCTTVTFYYSRELRWFAYWGQGTLVTVSS
VL: DIVLTQSPATLSLSPGERATLSCQASQDIGNYLSWYQQKPGQAPRLLIYSATSLASGIPARFSGSRSGTDFTLTISSLEPEDFAVYYCLQHYSTPYTFGQGTKLEIK
notes: H6K3 with L34M, N65G, N76D (heavy) and D56S, Y71F (light)

Kd (mIL2-his [3]): 1.4 nM
koff (mIL2-his [3]): 0.00121 s⁻¹
kon (mIL2-his [3]): 864000 M⁻¹ s⁻¹
EC50 (mIL2-his [4]): 0.0357 µg/mL
B8: hS4B6-H6K7 (antibody, V domains shown)
VH: QVQLVQSGAEVKKPGATVKISCKVSGDTITAYYLHWVRQAPGQGLEWIGRIDPEDDSTKYAENFKNRVTITADTSTNTAYMELSSLRSEDTAVYYCTTVTFYYSRELRWFAYWGQGTLVTVSS
VL: DIQMTQSPSSLSASVGDRVTITCQASQDIGNYLSWYQQKPGKAPKLLIHSATSLADGVPSRFSGSGSGTDFTLTISSLQPEDFATYYCLQHYSTPYTFGGGTKVEIK
notes: full antibody
